The results in this text go back to article PMC7214467 (Nature Communications, 2020).

In assay [1] the target is HLA-A2/NY-ESO-1 peptide complex on tumor cells (Homo sapiens, HLA-A2 (A*02:01 assumed), …). Description: cell-based or functional assay.
In assay [2] the target is T1, CD3 on Jurkat cells (Homo sapiens, endogenous on Jurkat …, UniProt P07766).
T1 construct: CD3 of the T cell receptor complex on Jurkat cells; On cells CD3ε stands with the other CD3 chains and the TCR; also called CD3+ Jurkat cells; source: endogenous, on Jurkat cells (ATCC TIB-152)
As to the kind of experiment: flow cytometry on cells; Jurkat cells; titrated from 30 μg/mL in 3-fold dilutions, on ice; detected with PE goat anti-human lambda. The settings on record: one partner purified. (In general: Flow cytometry measures light scatter and fluorescence of single cells or particles in a stream.)

T1 sequence (P07766 23-207): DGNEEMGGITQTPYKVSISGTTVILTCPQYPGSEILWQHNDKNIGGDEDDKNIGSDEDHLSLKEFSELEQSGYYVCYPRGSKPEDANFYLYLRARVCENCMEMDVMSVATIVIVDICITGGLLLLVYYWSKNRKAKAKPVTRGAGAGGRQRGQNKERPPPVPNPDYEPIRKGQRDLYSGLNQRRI

B1: TCR/CD3 IgG BsAb with the 1G4_122 NY-ESO-1 TCR (stabilized Cα/Cβ subunit) and the chimeric SP-34 anti-CD3 arm (bispecific antibody, V domains shown)
VH: EVQLVESGGGLVQPKGSLKLSCAASGFTFNTYAMNWVRQAPGKGLEWVARIRSKYNNYATYYADSVKDRFTISRDDSQSLLYLQMNNLKTEDTAMYYCVRHGNFGNSYVSWFAYWGQGTLVTVSA
VL: QAVVTQESALTTSPGETVTLTCRSSTGAVTTSNYANWVQEKPDHLFTGLIGGTNKRAPGVPARFSGSLIGDKAALTITGAQTEDEAIYFCALWYSNLWVFGGGTKLTVL
notes: soluble 1G4_122 TCR α chain; Cα with the stabilizing mutations as in m1; soluble 1G4_122 TCR β chain; Cβ with the stabilizing mutations as in m2; detected with goat anti-human lambda; Two heavy chains joined by the 7.8.60 Fc heterodimer design; also called IgG-like BsAb; TCR/CD3 bifunctional; source: CHO K1SV KO, transient, secreted, purified (mAbSure resin, preparative size exclusion); copies: + …
As for B1, in assay [1], the “T cell redirected lysis of peptide-pulsed Saos-2 cells by primary T cells, 48 h, EC50” value was around 1 nM. The binding result in assay [2] is reported as “binds”.

B2: TCR/CD3 Tandem BsAb with the stabilized 1G4_122 NY-ESO-1 TCR and the chimeric SP-34 anti-CD3 Fab (bispecific antibody, V domains shown)
VH: EVQLVESGGGLVQPKGSLKLSCAASGFTFNTYAMNWVRQAPGKGLEWVARIRSKYNNYATYYADSVKDRFTISRDDSQSLLYLQMNNLKTEDTAMYYCVRHGNFGNSYVSWFAYWGQGTLVTVSA
VL: QAVVTQESALTTSPGETVTLTCRSSTGAVTTSNYANWVQEKPDHLFTGLIGGTNKRAPGVPARFSGSLIGDKAALTITGAQTEDEAIYFCALWYSNLWVFGGGTKLTVL
notes: soluble 1G4_122 TCR α chain; Cα with the stabilizing mutations as in m1; soluble 1G4_122 TCR β chain; Cβ with the stabilizing mutations as in m2; detected with goat anti-human lambda; also called tandem Fab BsAb; tandem Fab; copies: + + +
Take B2: in assay [1], the “T cell redirected lysis of peptide-pulsed 624.38 cells by primary T cells, 48 h, EC50” value is around 0.1 nM and the “T cell redirected lysis of peptide-pulsed Saos-2 cells by primary T cells, 48 h, EC50” value is around 0.03 nM. In assay [2], the binding result is recorded as “binds”.
